Our source for the EC50 values is US7592156B2, “Synthetic dog/human chimeric C-C chemokine receptor 2B” (Wyeth, priority 2006, dated 2009).

Assay [1] has as its target T1, chimeric dog-human CCR2B (Homo sapiens, UniProt P41597, A111V/A286I/C181V/C75S/D36S/E105G/E278K/F108L/F271S/G175R/G191S/G197A/G224A/G273N/G41A/I128T/I163V/I208V/I217V/I263L/I300V/I40V/I93L/K180T/K183I/K38R/L115S/L166M/L274V/L76M/L95I/L97F/N110E/N199K/N207S/N266S/P195Q/Q43G/R196Q/R240K/R243K/S101Y/T247V/T257A/T287M/V107L/V162G/V173L/V187F/V189S/V244L/Y188S/Y193Q/Y259N).
T1 construct: expressed in transfected cells
T1 sequence (P41597 1-360 isoform P41597-2 D36S/K38R/I40V/G41A/Q43G/C75S/L76M/I93L/L95I/L97F/S101Y/E105G/V107L/F108L/N110E/A111V/L115S/I128T/V162G/I163V/L166M/V173L/G175R/K180T/C181V/K183I/V187F/Y188S/V189S/G191S/Y193Q/P195Q/R196Q/G197A/N199K/N207S/I208V/I217V/G224A/R240K/R243K/V244L/T247V/T257A/Y259N/I263L/N266S/F271S/G273N/L274V/E278K/A286I/T287M/I300V): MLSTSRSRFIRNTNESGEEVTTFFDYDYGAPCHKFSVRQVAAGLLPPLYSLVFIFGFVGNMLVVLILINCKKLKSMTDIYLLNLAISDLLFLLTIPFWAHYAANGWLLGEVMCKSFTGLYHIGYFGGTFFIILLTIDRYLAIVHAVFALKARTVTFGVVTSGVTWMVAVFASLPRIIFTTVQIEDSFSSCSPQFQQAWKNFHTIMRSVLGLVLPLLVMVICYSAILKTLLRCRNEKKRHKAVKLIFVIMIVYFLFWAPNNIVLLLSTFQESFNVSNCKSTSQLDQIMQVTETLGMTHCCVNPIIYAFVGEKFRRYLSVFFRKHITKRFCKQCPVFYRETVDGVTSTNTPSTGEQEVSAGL
The assay is described as follows: FLIPR calcium mobilization agonist assay in CHO-K1 cells expressing chimeric dog-human CCR2B. It counts as cell-based. As for the experimental part:
The chimeric CCR2B/cDNA3.1 plasmid of Example 1 was expressed in CHO-K1 cells using the Lipofectamine-Plus reagent (Invitrogen, Carlsbad, Calif., USA) according to manufacturer's instructions, and the resulting stable cell lines following selection with the antibiotic G418 were assayed for MCP-1-dependent calcium mobilization in a FLIPR assay. Cells were plated at 15,000 per well in a 384-well assay plate one day prior to assay. Calcium-3 indicator dye (Molecular Devices, Sunnyvale, Calif., USA) was added 1 hr prior to assay, and cells were incubated at 37° C. For the agonist assay, human MCP-1 was added to cells, followed immediately by reading of calcium mobilization on the FLIPR. RFU counts (Max-Min) were recorded for each MCP-1 concentration assayed. For the antagonist assay, the antagonist was added to the cells 20 min prior to addition of MCP-1. The MCP-1 activation of calcium mobilization in CCR2B/CHOK1 cells of Example 2 was extended to include examination of the effects of mouse and canine MCP-1 (FIG. 4A). […] The qualitative similarity of the results in the CHOK1 cells expressing the chimeric receptor and THP-1 cells, with their endogenous expression of the human receptor, lends evidence that the chimeric receptor faithfully recapitulates the activation pharmacology of the native receptor.
A general note: Calcium flux is commonly read through the fluorescence of an indicator in the cells.

Assay [2] deals with T2, human CCR2B (Homo sapiens, UniProt P41597).
T2 construct: THP-1 cells, with their endogenous expression of the human receptor; endogenous in cells; host or cells: THP-1 (human monocyte cell line)
T2 sequence (P41597 1-360 isoform P41597-2): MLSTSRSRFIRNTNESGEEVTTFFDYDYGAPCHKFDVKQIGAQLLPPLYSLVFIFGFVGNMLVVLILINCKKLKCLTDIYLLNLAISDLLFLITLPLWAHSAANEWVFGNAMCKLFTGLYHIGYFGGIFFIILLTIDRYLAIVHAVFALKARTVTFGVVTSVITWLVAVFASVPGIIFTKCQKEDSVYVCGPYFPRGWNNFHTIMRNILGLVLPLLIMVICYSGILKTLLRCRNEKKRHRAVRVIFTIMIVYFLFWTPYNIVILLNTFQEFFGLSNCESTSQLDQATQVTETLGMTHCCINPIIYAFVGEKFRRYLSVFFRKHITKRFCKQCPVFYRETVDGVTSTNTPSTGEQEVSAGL
Put plainly: FLIPR calcium mobilization agonist assay in THP-1 cells. It counts as cell-based. Conditions: endogenous human CCR2B expression.

The EC50 is the concentration giving half of the maximal effect. Consider “cMCP-1: canine monocyte chemoattractant protein-1 (chemokine)”, for which the EC50 worked out at 138 nM in assay [1] and 53 nM in assay [2].
On to “mouse MCP: mouse monocyte chemoattractant protein-1 (chemokine)”, for which the concentration giving a half-maximal response (EC50) is 38 nM in assay [1] and 30 nM in assay [2].
